# Laboratory results taken from paper PMC7142073, “Acclimation of bacterial cell state for high-throughput enzyme engineering using a DmpR-dependent transcriptional activation system” (Scientific Reports, 2020).
# B1: thermostable TPL (TTPL) (Symbiobacterium sp. SC-1) (protein)
# chain: MQRPWAEPYKIKAVEPIRMTTREYREQAIREAGYNTFLLRSEDVYIDLLTDSGTNAMSDRQWGALMMGDEAYAGARSFFRLEEAVREIYGFKYVVPTHQGRGAEHLISRILIKPGDYIPGNMYFTTTRTHQELQGGTFVDVIIDEAHDPQANHPFKGNVDIAKFEALIDRVGADKIPYINVALTVNMAGGQPVSMANLREVRKVCDRHGIRMWSDATRAVENAYFIKEREEGYQDKPVREILKEMMSYFDGCTMSGKKDCLVNIGGFLAMNEEWILQKAREQVVIFEGMPTYGGLAGRDMEAIAQGIYEMVDDDYIAHRIHQVRYLGEQLLEAGIPIVQPIGGHAVFLDARAFLPHIPQDQFPAQALAAALYVDSGVRAMERGIVSAGRNPQTGEHNYPKLELVRLTIPRRVYTDRHMDVVAYSVKHLWKERDTIRGLRMVYEPPTLRFFTARFEPIS
# notes: His-tagged, pSHCE plasmid, expressed in E. coli DH5alpha with pGESS; cloning primer starts … (M-Q-R-P)
# Substrate: N[C@@H](Cc1ccc(O)cc1)C(=O)O
# Test: purified protein
# Format: biochemical, Symbiobacterium sp. SC-1
# Conditions: 50 mM potassium phosphate, 50 µM PLP; pH 8.0; 60.0 °C
protein,measurement,value
B1,Km,270 ± 10 µM
same,kcat,0.15 ± 0.01 s⁻¹
same,kcat/Km,550 ± 10 M⁻¹ s⁻¹
